Experimental data published in PMC6592559.
Ends that are not written are not given here.

Biological target: T1, PDF receptor (PDFR), endogenous in the insulin producing cells (Drosophila melanogaster (endogenous in fly brain)) (UniProt Q9W4Y2)
T1 sequence: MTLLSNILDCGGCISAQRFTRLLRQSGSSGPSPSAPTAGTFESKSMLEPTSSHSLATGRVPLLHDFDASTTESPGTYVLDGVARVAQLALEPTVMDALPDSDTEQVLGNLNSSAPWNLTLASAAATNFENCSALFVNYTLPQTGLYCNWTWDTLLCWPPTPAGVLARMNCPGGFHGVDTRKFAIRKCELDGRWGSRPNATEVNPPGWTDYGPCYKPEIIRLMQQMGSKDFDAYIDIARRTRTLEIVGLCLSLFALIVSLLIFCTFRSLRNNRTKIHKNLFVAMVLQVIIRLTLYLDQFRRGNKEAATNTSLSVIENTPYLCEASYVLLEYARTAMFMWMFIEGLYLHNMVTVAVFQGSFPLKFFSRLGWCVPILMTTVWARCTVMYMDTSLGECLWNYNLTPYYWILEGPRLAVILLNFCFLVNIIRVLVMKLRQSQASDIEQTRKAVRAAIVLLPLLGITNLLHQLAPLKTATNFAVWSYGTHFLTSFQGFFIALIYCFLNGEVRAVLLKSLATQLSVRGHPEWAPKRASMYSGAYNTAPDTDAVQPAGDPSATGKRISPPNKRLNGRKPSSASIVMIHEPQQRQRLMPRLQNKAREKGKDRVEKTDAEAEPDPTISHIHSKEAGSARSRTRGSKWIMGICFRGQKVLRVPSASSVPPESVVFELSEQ

cAMP FRET signal (Epac1camps) in the IPCs of dissected brains, 10 uM PDF bath-applied, 100-1000 s, against the HL3 negative control; no increase in the PDFR-null han mutant: 10%
Binder: NSELINSLLSLPKNMNDA-NH2 [Pigment Dispersing Factor (PDF), synthetic peptide]
